This note sets out measurements from PMC6467989, “RNA recognition motifs of disease-linked RNA-binding proteins contribute to amyloid formation” (Scientific Reports, 2019).

Series [1] deals with the molecule itself. In words: Thioflavin T fluorescence; fresh protein or fibrillar solutions mixed with ThT (final 20 μM), 10 mM phosphate buffer, excited at 442 nm, emission 460–600 nm; self-assembly into amyloid-like aggregates.
Series [2] deals with the molecule itself. Description: X-ray fibre diffraction; fibrils grown by agitation at room temperature for two days (RRMs 50 μM in 10 mM phosphate pH 7.5, 50 mM NaCl; peptides in water), also seen by negative-stain TEM; fibrils centrifuged, washed, dried, diffraction at room temperature; self-assembly into amyloid fibrils.
Series [3] deals with the molecule itself. Description: ATR-FTIR spectroscopy; fresh protein or peptide against freshly prepared fibrils washed and re-suspended in D2O; amide I band 1600–1700 cm^-1; self-assembly into amyloid fibrils of parallel β-sheets.

B1: FUS RRM (residues 281–375) (domain or fragment, human, UniProt P35637 281-375, looked up)
chain: NSDNNTIFVQGLGENVTIESVADYFKQIGIIKTNKKTGQPMINLYTDRETGKLKGEATVSFDDPPSAKAAIDWFDGKEFSGNPIKVSFATRRADF
notes: Fused in Sarcoma (FUS), human, RNA recognition motif, residues 281-375; Vector PQE30 or pET28a; also called Fused in Sarcoma RRM; source: E. coli (M15 or BL21-CodonPlus (DE3) RIPL), purified (HisTrap FF, HiTrap Heparin HP, Superdex 75)
With B1, the binding result in series [1] is recorded as “binds”.

B2: TDP-43 RRM1 β2b peptide (peptide)
peptide: GEVLMVQVKK
notes: TDP-43, human, β2 strand of RRM1, residues 128-137; source: synthetic peptide (synthesized by Mission Biotech)
Regarding B2, the binding result in series [2] was “binds”.

B3: TDP-43 RRM1 β2a peptide (peptide)
peptide: VLMVQVKK
notes: TDP-43, human, β2 strand of RRM1, residues 130-137; source: synthetic peptide (synthesized by Mission Biotech)
For the protein B3, the binding result in series [2] is “binds”.

B4: FUS RRM β2 peptide (peptide)
peptide: MINLYT
notes: FUS, human, β2 strand of the RRM, residues 321-326; source: synthetic peptide (synthesized by Mission Biotech)
Regarding B4, the binding result in series [3] is “binds”.
